{
  "source": "patent US20240084003A1",
  "about": "(SIMCERE ZAIMING PHARMACEUTICAL, published 2024)",
  "binders": {"B1": {"name": "F1.105.11 (antibody, human IgG1, kappa, V domains shown)", "VH": "EVQLQQSGPVLVKPGASVKMSCKASGYTFSDYFMNWVKQSHGKSLEWIGIINSYSGGTSYNQKFKGKATLTVDKSSSTAYMELNSLTSEDSAVYYCARWMDYWGQGTSVTVSS", "VL": "DVQITQSPSYLAASPGETITINCRTSESISKHLAWYQEKPGKTNKLLIYSGSTLQSGIPSRFSGSGSGTDFTLTISSLEPEDFAMYYCQQHNEYPWTFGGGTKLEIKR", "notes": "human-murine chimeric IgG1 kappa; VL name legible"}, "B2": {"name": "F1.216.2 (antibody, human IgG1, kappa, V domains shown)", "VH": "QVQLQQSGPEVVRPGASVKISCKASGYAFSSSWMNWMKQRPGKALEWIGRIYPGDGDTNYSGEFKVKATLTADKSSSTAYMQLSSLTSEDSAVYFCAREGSYYSNPWYFDYWGQGTTLTVSS", "VL": "DVLVTQTPLSLPVSLGDQASISCRSSQSIVQSNGDTYLEWYLQKPGQSPKLLIYKVSNRFSGVPDRFSGSGSGTDFTLKISRVEAEDLGVYYCFQGSHVPFTFGSGTKLEIKR", "notes": "human-murine chimeric IgG1 kappa"}, "B3": {"name": "F1.257.3 (antibody, human IgG1, kappa, V domains shown)", "VH": "QVQLQQSGPELARPGASVKLSCKASGYTFTSYGISWVKQRTGQDLEWIGEIYPKLGTTYYNEKFKDKATLTTDRSSSTAYMALRSLTSEDSAVYFCACPHYYATRGGDYWGQGTTLTVSS", "VL": "EIVLTQSPATLSVTPGDSVTFSCRASQSISNHLHWYQQKSHESPRLLIRYASQSISGIPSRFSGSGSGTDFTLSLSSVETEDFGVYFCQQSHSWPYTFGGGTKLEIAR", "notes": "as for B1"}, "B4": {"name": "F1.245.2 (antibody, human IgG1, kappa, V domains shown)", "VH": "EVQLQQSGAELVKPGASVKLSCTGSGFNIKDYYIHWVKQRTEQGLEWMGRIDPEDGETEYAPKFQDEATITSDTSSNTAYLQLSSLTYEDTAVYYCAREAAGYFYRGSSYGYFDVWGTGTTVTVSS", "VL": "DFQMTQTTSFLSASLGDRVTISCSASQDISNYLNWYQQKPDGTVKLLIYYTSSLHSGVPSRFSGSGSGTDYSLTISNLEPEDIATYYCQQYSMLPYTFGGGTKLEMER", "notes": "as for B2"}, "B5": {"name": "F1.267.9 (antibody, human IgG1, kappa, V domains shown)", "VH": "EVQLQQSGPVLVKPGASVKMSCKASGYTFTDFYMNWAKQSHGKSLEWVGVINPYNGGINYNQKFKGKATLTVDKSSSTAYMEFNSLTSEDSAVYYCARRMEYHAMDYWGQGTSVTVSS", "VL": "DIVLTQSPASLAVSLGQRATISCRASESVDNYGFDFIHWYQQKPGQPPKLLIYRASNLESGIPARFSGSGSRPDFTLTINPVETDDVATYYCQQSIKDPWTFGGGTKLEIKR", "notes": "as for B1"}, "B6": {"name": "F1.172.13 (antibody, human IgG1, kappa, V domains shown)", "VH": "QVTLKESGPGILQSSQTLSLTCSFSGFSLSTSGMGVSWIRQPSGKGLEWLAHIYWDDDKRYNPSLKSRLTISKDTSRNQVFLKITSVDTADTATYYCARAPPPNWDEYYFDYWGQGTTLTVSS", "VL": "DIQMTQSPASLSASVGETVTITCRASGNIHNSLAWYQQKQGKSPQLLVHNAKTLADGVPSRFSGSGSGTQYSLKINSLQPEDFGSYYCQHFWSTPPFGGGTKLEIKR", "notes": "as for B2"}, "B7": {"name": "F1.60.9 (antibody, human IgG1, kappa, V domains shown)", "VH": "QVQLKESGPGLVAPSQSLSITCTVSGLSLNNYGVSWVRQPPGKGLEWLGVIWGDGSTNYHSALISRLSISKDNSKSQVFLKLNSLHTDDTATYYCAINWGDYWGQGTTLIVSS", "VL": "DIKMTQSPSSMNASLGERVTITCKASQDINSYLSWFQQKPGKSPKILIYRANRLIDGVPSRFSGSGSGQDYSLTISSLEYEDMGIYYCLQYGVFPLTFGAGTKLELKR", "notes": "as for B2"}, "B8": {"name": "F1.7.6 (antibody, human IgG1, kappa, V domains shown)", "VH": "EIQLQQSGPELVKPGTSVKVSCKASGYDFTRYNMYWVKQSHGKSLEWIGYIDPYNGDTRYNQKFKGKATLTVDKSSSTAYMHLNSLTSEDSAVYYCEAIYYDMEGYALDYWGQGTSVTVSS", "VL": "DIVMSQSPSSLAVSVGEKVTMSCKSSQSLLYSNNQKNYLAWYQQKPGQSPKKLIYWASTRESGVPDRLTGSGSGTDFTLTISSVTAEDLAVYYCQQFYSYPWTFGGGTKLEIKR", "notes": "as for B1"}, "B9": {"name": "F1.200.11 (antibody, human IgG1, kappa, V domains shown)", "VH": "QNQLVQSGPELKKPGETVKISCKASGYTFTTAGMQWVQKMPGKGFKWIGWINTLSGEPKYAEDFKGRFAFSLETSATTAYLQISNLKNEDTATYFCARAYYSNLYWYFDVWGTGTTVTVSS", "VL": "DIVMTQSQKFMSTTVGDRVTITCKASQNVVTAVAWYQQKPGQSPKVLIYSASNRYSGVPDRFTGSGSGTDFTLTISNMHSEDLANYFCHQYSSYPFTFGSGTKLEIKR", "notes": "as for B2"}, "B10": {"name": "F1.17.1 (antibody, human IgG1, kappa, V domains shown)", "VH": "QVQLKESGPGLVAPSQSLSITCTVSGFSLSRYTVHWVRQPPGKGLEWLGMIWGGGSTDYNSALKSRLSISKDNSKSQVFLKMNSLQTDDTAMYYCARPHDFDAGGFAYWGQGTLVTVSA", "VL": "QIVLTQSPAILSTSPGEKVTMTCSASSRVNYMYWYQQKPGSSPRLLIYDTSNLASGVPVRFSGSGSGTSYSLTISRMEAEDAATYYCQQWTSYPLTFGAGTKLELKR", "notes": "as for B2"}, "B11": {"name": "F1.250.16 (antibody, human IgG1, kappa, V domains shown)", "VH": "QVQLQQSGAEQVKPGASVKMSCKASGYTFTTYPIEWMKQNHGESLDWIGNIHPYNDDTEYNEKFKGKATLTVEKSSNTVFLELSRLTSDDSAVYYCVRGDYYNSRYWYFDVWGTGTTVTVSS", "VL": "DIVMTQSQKFMSTTVGDRVSITCKAGQNVRTAVAWYQQKPGQSPKLLIYSASTRYIGVPERFTGSGSGTDFTLTITNMQSEDLADYFCQQYSSFPLTFGTGTKLELKR", "notes": "as for B1"}, "B12": {"name": "F1.192.1 (antibody, human IgG1, kappa, V domains shown)", "VH": "AVQLQQSGVELVRPGASVKLSCTGSDFNIKEDYIHWVKQRPEQGLEWIGWIDPENGDTEYASKFQGKATITADTSSNTAYLQLSSLTSEDTAVYYCATYGSLDYWGQGTTLTVSS", "VL": "DIKMTQSPSSMYAFLGERVTITCKASQGINSFLTWFQQKPGKSPKTLIYRANRLVDGVPSRFSGSGSGQDYSLTISSLEYEDVGIYYCLQYDEFPRTFGGGTKLEIKR", "notes": "as for B2"}, "B13": {"name": "F1.231.15 (antibody, IgG1, V domains shown)", "VH": "QVQLQQPGAELVKPGASVKLSCKTSGYTFTIYWMQWVKQRPGRGLEWIGRIDPHSGDTHYNENFTTKVTLTVDETSNTAYMHLSGLTSEDSAVYYCARRDYSYYVLDYWGQGTSVTVSS", "VL": "DVVLTQTPLSLPVSLGDQASISCRSSQSLVHINGDTYLHWYLQKPGQSPKLLIYTVFNRFSGVPDRFSGSGSGTDFTLKISRVEAEDLGAYFCSQSTHVPYTFGGGTKLEIKR", "notes": "as for B2"}, "B14": {"name": "F1.224.1 (antibody, human IgG1, kappa, V domains shown)", "VH": "EVLLHQSGPELVKPGASVKISCKASGYTFTDFNMDWVRQRHGQSLEWIGDVNPNNGGTIYNQKFKGKATLTVDKSSSTVYMDLRSLTSDDTAVYYCVRLGTSDYGEAWFISWGQGTVVTVSA", "VL": "DIVLTQSPASLAVSLGQRATISCRASQSVSTPRYSFMHWYQQKPGQPPKLLIKYASNLESGFPARFTGSGSGTDFTLNIHPVEEEDTAAYYCQQSWAIPWTFGGGTKLEIKR", "notes": "as for B1"}, "B15": {"name": "F1.120.15 (antibody, human IgG1, kappa, V domains shown)", "VH": "QVQLQQSGPELVKPGASVKISCKASGNAFSNSWMNWVKQRPGKGLEWIGRVYSEDGDTQYNGKFRDKATLTADRSTSTAYMQLSSLTSEDSAVYFCARWLIYYGTYGAMDYWGQGTSVTVSS", "VL": "DIQMTQTTSSLSASLGDRVTISCRASQDINNYLNWYHQKPDGTVKLLIYFTSRPYSGVPSRFSGSGSGTDYSLTISNLEQEDIATYFCQQGNTLPWTFGGGTKLEIKR", "notes": "as for B2"}},
  "data": [
    {"target": "T1, monkey CD22 on HEK293T-monkey CD22 cells (monkey)", "T1 construct": "full-length entry expressed on stably transfected HEK293T cells", "T1 chain": "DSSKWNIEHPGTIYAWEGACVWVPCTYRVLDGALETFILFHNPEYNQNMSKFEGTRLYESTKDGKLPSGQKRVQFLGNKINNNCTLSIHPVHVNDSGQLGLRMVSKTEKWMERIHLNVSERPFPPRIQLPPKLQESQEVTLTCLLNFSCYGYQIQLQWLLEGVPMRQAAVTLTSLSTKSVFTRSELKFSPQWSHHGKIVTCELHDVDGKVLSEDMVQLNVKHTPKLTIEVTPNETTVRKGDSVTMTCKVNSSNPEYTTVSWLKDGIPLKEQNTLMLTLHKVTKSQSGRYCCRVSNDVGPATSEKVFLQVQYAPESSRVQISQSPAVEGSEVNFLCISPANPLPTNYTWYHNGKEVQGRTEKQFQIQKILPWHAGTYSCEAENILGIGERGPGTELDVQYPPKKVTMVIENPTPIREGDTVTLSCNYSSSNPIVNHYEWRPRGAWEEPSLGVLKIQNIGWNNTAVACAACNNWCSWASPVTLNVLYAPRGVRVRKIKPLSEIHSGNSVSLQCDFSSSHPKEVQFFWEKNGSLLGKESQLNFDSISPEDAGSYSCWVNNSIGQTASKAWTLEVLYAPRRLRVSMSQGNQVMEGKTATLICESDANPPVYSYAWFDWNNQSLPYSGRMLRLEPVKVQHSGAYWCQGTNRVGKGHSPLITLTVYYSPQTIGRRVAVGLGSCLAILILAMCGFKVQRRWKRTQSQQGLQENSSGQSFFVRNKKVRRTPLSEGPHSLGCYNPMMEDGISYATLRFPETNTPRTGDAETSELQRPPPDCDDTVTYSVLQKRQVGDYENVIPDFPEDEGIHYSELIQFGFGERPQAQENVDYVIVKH", "assay": "FACS, HEK293T-monkey CD22 cells", "description": "For suspension cell Raji, the medium supernatant was directly centrifuged and discarded, and the cell pellet was washed 2 times with PBS. After counting the cells in the previous step, the cell pellet was resuspended with [PBS+2% (w/w) BSA] blocking solution to 2×10⁶ cells/ml, and added to a 96-well FACS reaction plate at 50 μl/well, and then the chimeric antibody test sample was added at 50 μl/well, and incubated on ice for 2 hours. The mixture was centrifuged and washed 3 times with PBS buffer, Alexa Flour 488-labeled secondary antibody (purchased from Invitrogen, catalog number: A-11013) was added at 50 μl/well, and incubated on ice for 1 hour. The obtained mixture was centrifuged and washed 5 times with PBS, and FACS (FACS Canto™, purchased from BD Company) was used for detection and result analysis. Data analysis was performed by software (CellQuest) to obtain the mean fluorescence density (MFI)of the cells. And then software (GraphPad Prism8) was used for analysis, data fitting, and EC50 value calculation. […] The same method was used to detect the binding of the chimeric antibodies to endogenous CD22-negative cell MoLT4 cells (purchased from ATCC, CRL-1582) and CHO-K1 cells.\nHEK293T-monkey CD22 cells were subjected to FACS detection and data analysis according to the method in Example 5.2.", "units": {"EC50": "nM", "Maximum mean fluorescence intensity": "MFI"}, "values": [
      {"binder": "B1", "EC50": 1.3, "Maximum mean fluorescence intensity": 7530},
      {"binder": "B2", "EC50": 0.26, "Maximum mean fluorescence intensity": 13900},
      {"binder": "B3", "Maximum mean fluorescence intensity": 147},
      {"binder": "B4", "Maximum mean fluorescence intensity": 124},
      {"binder": "B5", "EC50": 1.15, "Maximum mean fluorescence intensity": 15300},
      {"binder": "B6", "EC50": 0.47, "Maximum mean fluorescence intensity": 19000},
      {"binder": "B7", "Maximum mean fluorescence intensity": 531},
      {"binder": "B8", "EC50": 2.22, "Maximum mean fluorescence intensity": 9220},
      {"binder": "B9", "EC50": 4.32, "Maximum mean fluorescence intensity": 16200},
      {"binder": "B10", "EC50": 0.38, "Maximum mean fluorescence intensity": 17200},
      {"binder": "B11", "EC50": 0.31, "Maximum mean fluorescence intensity": 19700},
      {"binder": "B12", "EC50": 0.62, "Maximum mean fluorescence intensity": 16300},
      {"binder": "B13", "EC50": 12.3, "Maximum mean fluorescence intensity": 9250},
      {"binder": "B14", "EC50": 0.79, "Maximum mean fluorescence intensity": 16300},
      {"binder": "B15", "EC50": 0.95, "Maximum mean fluorescence intensity": 13600}
    ]}
  ]
}
